In this assay the target is nMagHigh1-C714 (fused polypeptide of nMagHigh1 and a C-terminal side fragment of Cas9). As to the kind of experiment: cell-based or functional assay.

In turn, “N713-pMag (fused polypeptide of an N-terminal side fragment of Cas9 and pMag)” displayed a frequency of HDR (integration of a HindIII site) at human EMX1 locus, RFLP analysis, blue light of 7.2%; an indel frequency at EMX1 locus after 0, 1, 3 and 6 hours of blue light, T7E1 assay of under 1%; a light-dependent Cas9 activity, luciferase plasmid HDR assay in HEK293T cells of 16.4 times.

The record behind these values is patent US20170298330A1.
